Source: the supplement of paper PMC10724198
± gives the standard deviation of the averaged measurements.

Test system: Saccharomyces cerevisiae
Assay: protein stability index of tFT-peptide fusion (C-terminal peptide) (PSI (0-1 scale)); higher = more stable (slower turnover)
Conditions: genetic background: wild type; temperature: 30 C
Procedure: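 Multiplexed protein stability (MPS) profiling in S. cerevisiae. Random 12-aa peptides (tFT-X12 library) are fused to the C-terminus of a sfGFP-mCherry tandem fluorescent timer, after mCherry and a GGGS linker. Cells are FACS-sorted into 8 mCherry/sfGFP bins and deep-sequenced. The protein stability index (PSI) is the read-weighted bin average, scaled from 0 (unstable) to 1 (stable). Only peptides with >10 reads are reported; cells were grown at 30 °C in SC-His with glucose.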
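Note: PSI is a weighted mean of sequencing reads over stability bins, variants kept only with over 10 reads, mCherry proximal and sfGFP distal, peptide attached via GGGS linker.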

| Sequence | protein stability index |
| --- | --- |
| SPPPISPSLPPL | 0.728 ± 0.029 |
| FESFHLENRGEK | 0.706 ± 0.04 |
| SCGCCGVLFQGV | 0.846 ± 0.2 |
| QKPVQGICQEAN | 0.628 ± 0.035 |
| AAPGWDGTIGCG | 0.753 ± 0.043 |
| EFKLINLETQRC | 0.706 ± 0.017 |
| GGGGGGAEGAGW | 0.711 ± 0.02 |
| NGDPRVHTAVAR | 0.704 ± 0.054 |
| IVNLAQAEFVVT | 0.645 ± 0.039 |
| LLSGPPVPPSWS | 0.653 ± 0.19 |
| GVSKALAAAVDA | 0.6874 ± 0.0061 |
| GPCRICNERSLI | 0.613 ± 0.0062 |
| GFISVGVYPVVR | 0.677 ± 0.0081 |
| RSSRGGFAFVYR | 0.676 ± 0.03 |
| TRRKVKYTELYQ | 0.69 ± 0.041 |
| GGRGRRAGGSSG | 0.745 ± 0.016 |
| PSPLAPPLPPPS | 0.701 ± 0.015 |
| PPQALPHSSKQA | 0.6931 ± 0.0025 |
| PLAPLLSPPAFP | 0.808 ± 0.12 |
| PSSPPAPLAPHS | 0.731 ± 0.067 |
| CHNVIEKIRNNK | 0.657 ± 0.1 |
| KTTERRQTKSRV | 0.688 ± 0.085 |
| GWMLGAVRRGVI | 0.694 ± 0.032 |
| GSRCSEAQDRSD | 0.713 ± 0.015 |
| GCGLVGVVTGRD | 0.71 ± 0.14 |

| Sequence | protein stability index |
| --- | --- |
| LHETKRQKKRKR | 0.7187 ± 0.0062 |
| PPPPPPQTPRPR | 0.683 ± 0.061 |
| FLMDSQGPWICR | 0.726 ± 0.076 |
| FILCFPSLLSSL | 0.603 ± 0.022 |
| APPPPPPPRLTF | 0.695 ± 0.076 |
| GGGAGRGSRVWG | 0.746 ± 0.076 |
| GGGGMGGCSDDG | 0.742 ± 0.17 |
| SDPGRLVLKIRR | 0.715 ± 0.014 |
| FSVPLMLTFPRD | 0.721 ± 0.054 |
| GLPRFFKNPPVV | 0.6445 ± 0.0043 |
| VYPRNLPGSVPL | 0.666 ± 0.02 |
| TPKAMHPNPNTL | 0.6458 ± 0.0024 |
| GWSCRGVGGGLG | 0.708 ± 0.045 |
| QFERSVFLANAL | 0.679 ± 0.023 |
| KKKKNKKNKKQY | 0.676 ± 0.074 |
| IYPRLGPHSLVC | 0.589 ± 0.016 |
| PVTMWAGGKYYV | 0.718 ± 0.088 |
| LFVFSVCSWPRV | 0.579 ± 0.04 |
| GGHRRQGKKFTP | 0.711 ± 0.067 |
| PPPAPRPPLSLP | 0.621 ± 0.017 |
| LSSFIHCLYSHC | 0.606 ± 0.035 |
| PDHPTLPRRNPL | 0.743 ± 0.039 |
| FFSLISVFCPYP | 0.533 ± 0.065 |
| PPPSLPPPSATA | 0.689 ± 0.087 |
| GWCALGVRAILY | 0.651 ± 0.0097 |

| Sequence | protein stability index |
| --- | --- |
| FQGPPFKHVNSV | 0.701 ± 0.059 |
| PLLHDSHAIIPH | 0.716 ± 0.079 |
| GGKNVKCLDRGL | 0.693 ± 0.014 |
| VGDGQGWGGQGG | 0.688 ± 0.0075 |
| SPPPPTSPRPLT | 0.709 ± 0.0085 |
| RYPSRGQFGPSP | 0.691 ± 0.019 |
| HRWCLADYVEVG | 0.773 ± 0.063 |
| PRFLGWGGCLWV | 0.7265 ± 0.0045 |
| SLCHLFYGSVEG | 0.668 ± 0.055 |
| PPPPPPSPPRLP | 0.592 ± 0.03 |
| PPLALLLSPVPP | 0.688 ± 0.046 |
| KKNKKKKKRARY | 0.707 ± 0.038 |
| EGEVGGRWCGRG | 0.676 ± 0.046 |
| GTTLDEPGESGR | 0.621 ± 0.023 |
| PPPLLPHLLLPP | 0.611 ± 0.12 |
| GLARPLYALYRR | 0.618 ± 0.081 |
| KKKIKKQKKKQI | 0.70912 ± 0.00033 |
| QQLPPARLPRRP | 0.745 ± 0.012 |
| RQNPRLPPPFQP | 0.731 ± 0.052 |
| SGRPALSRARRG | 0.668 ± 0.015 |
| KSSAGAGQCPLS | 0.712 ± 0.019 |
| LCCTLPSRGVIV | 0.5993 ± 0.0059 |
| TPTPPRPPFRSP | 0.709 ± 0.035 |
| FSSTCLSSRFAI | 0.684 ± 0.07 |
| TSSTATWSYRNY | 0.673 ± 0.036 |

| Sequence | protein stability index |
| --- | --- |
| GCAITVKRLWFG | 0.656 ± 0.076 |
| PLSTGLPFPRSP | 0.718 ± 0.028 |
| LLSSPSVSPPPD | 0.6754 ± 0.0022 |
| KEKYEQIDIGKN | 0.719 ± 0.066 |
| VGHCSEGTFYPG | 0.65 ± 0.12 |
| SPPPSVCPRFPI | 0.761 ± 0.057 |
| FVLRFVLSLVFF | 0.494 ± 0.083 |
| GVAYSIVKKKKK | 0.684 ± 0.036 |
| IKKKKRRKEQEK | 0.7477 ± 0.0035 |
| DPAIHPNYKVAG | 0.701 ± 0.053 |
| NKPPGVGHGGVT | 0.672 ± 0.025 |
| ARTSPRSPTFPP | 0.69 ± 0.066 |
| VWSWVDSFCRGG | 0.744 ± 0.042 |
| LQCGDWVETTGS | 0.709 ± 0.031 |
| GNNPDHAYTSNI | 0.682 ± 0.07 |
| CCYSSLRLMSFL | 0.536 ± 0.014 |
| GRGCLGSILVFL | 0.633 ± 0.047 |
| PIFPALPRLSPS | 0.725 ± 0.022 |
| NNSRTNDVRRRK | 0.726 ± 0.018 |
| NIHRKLIKNERV | 0.694 ± 0.046 |
| NSSPVRSSCLSA | 0.6881 ± 0.0038 |
| ITWFRKVGAYGA | 0.644 ± 0.069 |
| SSSVFFFLRRFR | 0.698 ± 0.025 |
